# Laboratory results: patent US20200055920A1 (published 2020)
# Substitutions are numbered along the chain they refer to. Like-named read-outs stand apart in the source and are kept apart here.
# T1: BMP4 (UniProt P12644 293-408)
# T1 sequence (looked up): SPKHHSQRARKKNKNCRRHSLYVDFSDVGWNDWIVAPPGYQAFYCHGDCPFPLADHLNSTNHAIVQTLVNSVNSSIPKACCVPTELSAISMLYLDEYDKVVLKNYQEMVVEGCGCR
# T2: BMP6 (UniProt P22004 382-513, limits assumed)
# T2 sequence (looked up): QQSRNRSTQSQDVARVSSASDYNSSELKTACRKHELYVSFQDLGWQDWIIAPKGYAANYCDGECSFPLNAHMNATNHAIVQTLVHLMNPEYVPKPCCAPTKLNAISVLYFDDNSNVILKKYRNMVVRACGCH
# T3: BMP15 (UniProt O95972 268-392)
# T3 construct: also called GDF9b
# T3 sequence (looked up): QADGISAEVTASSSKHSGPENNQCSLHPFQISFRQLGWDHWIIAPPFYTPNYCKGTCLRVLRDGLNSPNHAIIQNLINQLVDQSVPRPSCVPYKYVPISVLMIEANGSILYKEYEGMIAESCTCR
# T4: BMP7 (UniProt P18075 293-431)
# T4 construct: also called osteogenic protein-1; OP-1
# T4 sequence (looked up): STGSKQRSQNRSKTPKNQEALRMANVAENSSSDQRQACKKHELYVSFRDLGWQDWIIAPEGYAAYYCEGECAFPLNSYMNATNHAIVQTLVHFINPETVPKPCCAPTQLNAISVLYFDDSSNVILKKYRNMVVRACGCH
# T5: BMP10 (UniProt O95393 317-424)
# T5 sequence (looked up): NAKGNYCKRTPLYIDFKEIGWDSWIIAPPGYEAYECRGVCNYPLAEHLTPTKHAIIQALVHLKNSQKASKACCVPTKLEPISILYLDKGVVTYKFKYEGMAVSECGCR
# T6: BMP5 (UniProt P22003 317-454, limits assumed)
# T6 sequence (looked up): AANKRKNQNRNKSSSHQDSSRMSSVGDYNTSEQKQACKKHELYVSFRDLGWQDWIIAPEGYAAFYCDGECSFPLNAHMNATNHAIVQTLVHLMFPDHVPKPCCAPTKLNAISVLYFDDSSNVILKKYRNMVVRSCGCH
# T7: GDF7 (UniProt Q7Z4P5 322-450, limits assumed)
# T7 construct: also called BMP12
# T7 sequence (looked up): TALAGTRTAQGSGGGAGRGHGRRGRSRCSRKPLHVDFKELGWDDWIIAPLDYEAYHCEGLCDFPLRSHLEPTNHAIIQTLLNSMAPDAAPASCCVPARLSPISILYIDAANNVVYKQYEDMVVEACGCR
# T8: Activin A (UniProt P08476 311-426)
# T8 construct: also called βAβA
# T8 sequence (looked up): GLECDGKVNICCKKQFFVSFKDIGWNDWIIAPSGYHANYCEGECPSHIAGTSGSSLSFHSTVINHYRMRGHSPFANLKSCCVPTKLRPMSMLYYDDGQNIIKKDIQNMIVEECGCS
# T9: GDF11 (UniProt O95390 299-407)
# T9 construct: also called BMP11
# T9 sequence (looked up): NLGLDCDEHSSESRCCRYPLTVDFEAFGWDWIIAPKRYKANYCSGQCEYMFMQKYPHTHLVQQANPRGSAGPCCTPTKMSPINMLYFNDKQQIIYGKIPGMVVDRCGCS
# T10: GDF8 (UniProt O14793 267-375)
# T10 construct: also called myostatin; growth and differentiation factor-8
# T10 sequence (looked up): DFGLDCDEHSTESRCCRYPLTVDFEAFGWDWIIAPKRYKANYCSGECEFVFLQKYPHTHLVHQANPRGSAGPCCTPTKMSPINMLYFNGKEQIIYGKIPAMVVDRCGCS
# T11: GDF6 (UniProt Q6KF10 336-455, limits assumed)
# T11 construct: also called BMP13
# T11 sequence (looked up): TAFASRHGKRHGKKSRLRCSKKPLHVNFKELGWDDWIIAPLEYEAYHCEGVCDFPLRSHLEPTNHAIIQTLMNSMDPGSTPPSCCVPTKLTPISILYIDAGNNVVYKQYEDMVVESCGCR
# T12: GDF5 (UniProt P43026 382-501, limits assumed)
# T12 construct: also called BMP14
# T12 sequence (looked up): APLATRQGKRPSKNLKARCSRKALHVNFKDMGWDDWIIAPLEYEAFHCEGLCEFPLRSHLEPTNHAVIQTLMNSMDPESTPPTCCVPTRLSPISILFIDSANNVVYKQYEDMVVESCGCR
# T13: Activin B (UniProt P09529 293-407)
# T13 construct: also called βBβB
# T13 sequence (looked up): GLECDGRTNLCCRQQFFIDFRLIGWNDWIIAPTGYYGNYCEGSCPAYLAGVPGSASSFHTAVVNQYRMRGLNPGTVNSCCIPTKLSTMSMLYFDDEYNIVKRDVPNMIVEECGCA
# T14: Activin AC (UniProt P08476 311-426; P55103 237-352)
# T14 sequence (looked up) 1: T8 sequence (looked up)
# T14 sequence (looked up) 2: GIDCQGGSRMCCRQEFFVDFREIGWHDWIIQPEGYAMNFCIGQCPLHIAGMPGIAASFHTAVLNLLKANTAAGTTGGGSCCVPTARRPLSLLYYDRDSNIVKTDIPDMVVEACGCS
# T15: Activin AB (UniProt P08476 311-426; P09529 293-407)
# T15 construct: also called βAβB
# T15 sequence (looked up) 1: T8 sequence (looked up)
# T15 sequence (looked up) 2: T13 sequence (looked up)
# T16: TGFβ3 (UniProt P10600 301-412)
# T16 construct: also called TGF-beta3
# T16 sequence (looked up): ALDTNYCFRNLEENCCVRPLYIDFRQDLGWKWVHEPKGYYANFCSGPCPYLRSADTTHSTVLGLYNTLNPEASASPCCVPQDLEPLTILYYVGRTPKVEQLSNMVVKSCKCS
# T17: TGFβ2 (UniProt P61812 303-414)
# T17 construct: also called TGF-beta2
# T17 sequence (looked up): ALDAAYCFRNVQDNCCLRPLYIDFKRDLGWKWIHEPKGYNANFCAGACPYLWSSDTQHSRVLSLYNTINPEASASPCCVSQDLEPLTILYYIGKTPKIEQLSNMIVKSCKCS
# B1: single-arm BMPRII-Fc heterodimeric complex (Fc fusion)
# chain 1: SQNQERLCAFKDPYQQDLGIGESRISHENGTILCSKGSTCYGLWEKSKGDINLVKQGCWSHIGDPQECHYEECVVTTTPPSIQNGTYRFCCCSTDLCNVNFTENFPPPDTTPLSPPHSFNRDETGGGTHTCPPCPAPELLGGPSVFLFPPKPKDTLMISRTPEVTCVVVDVSHEDPEVKFNWYVDGVEVHNAKTKPREEQYNSTYRVVSVLTVLHQDWLNGKEYKCKVSNKALPAPIEKTISKAKGQPREPQVYTLPPSRKEMTKNQVSLTCLVKGFYPSDIAVEWESNGQPENNYKTTPPVLKSDGSFFLYSKLTVDKSRWQQGNVFSCSVMHEALHNHYTQKSLSLSPGK
# chain 2: SNTKVDKRVTGGGTHTCPPCPAPELLGGPSVFLFPPKPKDTLMISRTPEVTCVVVDVSHEDPEVKFNWYVDGVEVHNAKTKPREEQYNSTYRVVSVLTVLHQDWLNGKEYKCKVSNKALPAPIEKTISKAKGQPREPQVYTLPPSREEMTKNQVSLTCLVKGFYPSDIAVEWESNGQPENNYDTTPPVLDSDGSFFLYSDLTVDKSRWQQGNVFSCSVMHEALHNHYTQKSLSLSPGK
# notes: also called BMPRII-Fc:Fc heterodimer
# B2: single-arm ALK3-Fc heterodimeric complex (Fc fusion)
# chain 1: GAQNLDSMLHGTGMKSDSDQKKSENGVTLAPEDTLPFLKCYCSGHCPDDAINNTCITNGHCFAIIEEDDQGETTLASGCMKYEGSDFQCKDSPKAQLRRTIECCRTNLCNQYLQPTLPPVVIGPFFDGSIRTGGGTHTCPPCPAPELLGGPSVFLFPPKPKDTLMISRTPEVTCVVVDVSHEDPEVKFNWYVDGVEVHNAKTKPREEQYNSTYRVVSVLTVLHQDWLNGKEYKCKVSNKALPAPIEKTISKAKGQPREPQVYTLPPSREEMTKNQVSLTCLVKGFYPSDIAVEWESNGQPENNYDTTPPVLDSDGSFFLYSDLTVDKSRWQQGNVFSCSVMHEALHNHYTQKSLSLSPG
# chain 2: B1 chain 2 with E147K, D183K, D190K, D200K
# notes: also called ALK3-Fc:Fc heterodimer
# B3: single-arm TGFβRII-Fc heterodimeric complex (Fc fusion)
# chain 1: TIPPHVQKSVNNDMIVTDNNGAVKFPQLCKFCDVRFSTCDNQKSCMSNCSITSICEKPQEVCVAVWRKNDENITLETVCHDPKLPYHDFILEDAASPKCIMKEKKKPGETFFMCSCSSDECNDNIIFSEEYNTSNPDTGGGTHTCPPCPAPELLGGPSVFLFPPKPKDTLMISRTPEVTCVVVDVSHEDPEVKFNWYVDGVEVHNAKTKPREEQYNSTYRVVSVLTVLHQDWLNGKEYKCKVSNKALPAPIEKTISKAKGQPREPQVYTLPPSRKEMTKNQVSLTCLVKGFYPSDIAVEWESNGQPENNYKTTPPVLKSDGSFFLYSKLTVDKSRWQQGNVFSCSVMHEALHNHYTQKSLSLSPGK
# chain 2: B1 chain 2
# notes: also called TGFβRII-Fc:Fc heterodimer
# Assays:
# Assay in all cases: Biacore SPR; receptor-Fc captured by anti-Fc antibody, ligand injected
# [1] = molecular target: T1, BMP4
# Protocol: (§1) A Biacore™-based binding assay was used to compare ligand binding selectivity of the single-arm BMPRII-Fc heterodimeric complex described above with that of an BMPRII-Fc homodimeric complex. The single-arm BMPRII-Fc and homodimeric BMPRII-Fc were independently captured onto the system using an anti-Fc antibody. Ligands were injected and allowed to flow over the captured receptor protein.
# [2] = molecular target: T2, BMP6
# Protocol: as §1
# [3] = molecular target: T3, BMP15
# Protocol: as §1
# [4] = molecular target: T4, BMP7
# Protocol: as §1
# [5] = molecular target: T5, BMP10
# Protocol: as §1
# [6] = molecular target: T18, BMP2 (UniProt P12643 283-396)
# Protocol: as §1
# [7] = molecular target: T6, BMP5
# Protocol: as §1
# [8] = molecular target: T7, GDF7
# Protocol: as §1
# [9] = molecular target: T1, BMP4; remark: listed apart in the source
# Protocol: (§2) Ligands were injected and allowed to flow over the captured receptor protein.
# [10] = molecular target: T8, Activin A
# Protocol: as §2
# [11] = molecular target: T9, GDF11
# Protocol: as §2
# [12] = molecular target: T10, GDF8
# Protocol: as §2
# [13] = molecular target: T2, BMP6; remark: listed apart in the source
# Protocol: as §2
# [14] = molecular target: T11, GDF6
# Protocol: as §2
# [15] = molecular target: T12, GDF5
# Protocol: as §2
# [16] = molecular target: T13, Activin B
# Protocol: as §2
# [17] = molecular target: T4, BMP7; remark: listed apart in the source
# Protocol: as §2
# [18] = molecular target: T5, BMP10; remark: listed apart in the source
# Protocol: as §2
# [19] = molecular target: T14, Activin AC
# Protocol: as §2
# [20] = molecular target: T18, BMP2; remark: listed apart in the source
# Protocol: as §2
# [21] = molecular target: T15, Activin AB
# Protocol: as §2
# [22] = molecular target: T6, BMP5; remark: listed apart in the source
# Protocol: as §2
# [23] = molecular target: T7, GDF7; remark: listed apart in the source
# Protocol: as §2
# [24] = molecular target: T16, TGFβ3
# Protocol: as §2
# [25] = molecular target: T19, TGFβ1 (UniProt P01137 279-390)
# T19 construct: also called TGF-beta1
# Protocol: as §2
# [26] = molecular target: T17, TGFβ2
# Protocol: as §2
# T19 sequence (P01137 279-390 limits assumed): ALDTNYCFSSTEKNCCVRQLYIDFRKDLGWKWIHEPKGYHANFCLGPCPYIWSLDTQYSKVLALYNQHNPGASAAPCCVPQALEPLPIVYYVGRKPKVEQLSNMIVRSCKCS
# T18 sequence (P12643 283-396 limits assumed): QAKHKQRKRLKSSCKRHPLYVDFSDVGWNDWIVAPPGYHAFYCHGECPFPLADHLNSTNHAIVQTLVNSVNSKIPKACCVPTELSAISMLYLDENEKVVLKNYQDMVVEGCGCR
binder,measurement,setting,value
B1,binding result,[1],no binding
same,binding result,[2],no binding
same,Kd,[3],0.94 nM
same,koff,[3],0.067 s⁻¹
same,kon,[3],7.1e+07 M⁻¹ s⁻¹
same,binding result,[4],no binding
same,Kd,[5],0.43 nM
same,koff,[5],0.0091 s⁻¹
same,kon,[5],2.1e+07 M⁻¹ s⁻¹
same,binding result,[6],no binding
same,Kd,[7],36 nM
same,koff,[7],0.015 s⁻¹
same,kon,[7],410000 M⁻¹ s⁻¹
same,Kd,[8],> 190 nM
B2,Kd,[9],0.093 nM
same,koff,[9],4.6e-05 s⁻¹
same,kon,[9],490000 M⁻¹ s⁻¹
same,binding result,[10],no binding
same,binding result,[11],no binding
same,binding result,[12],no binding
same,binding result,[13],no binding
same,binding result,[14],no binding
same,binding result,[15],no binding
same,binding result,[16],no binding
same,binding result,[17],no binding
same,binding result,[18],no binding
same,binding result,[19],no binding
same,Kd,[20],0.31 nM
same,koff,[20],0.00025 s⁻¹
same,kon,[20],790000 M⁻¹ s⁻¹
same,binding result,[21],no binding
same,Kd,[22],45 nM
same,koff,[22],0.0053 s⁻¹
same,kon,[22],120000 M⁻¹ s⁻¹
same,Kd,[23],22 nM
same,koff,[23],0.01 s⁻¹
same,kon,[23],460000 M⁻¹ s⁻¹
B3,Kd,[24],0.073 nM
same,koff,[24],0.0099 s⁻¹
same,kon,[24],1.4e+08 M⁻¹ s⁻¹
same,Kd,[25],0.031 nM
same,koff,[25],0.0047 s⁻¹
same,kon,[25],1.5e+08 M⁻¹ s⁻¹
same,Kd,[26],> 61 nM
